The target in data set [1] is SNARE–αSNAP complex on vesicles (rat | bovine), P60881.
Substrate in data set [2]: Nc1ncnc2c1ncn2[C@@H]1O[C@H](COP(=O)(O)OP(=O)(O)OP(=O)(O)O)[C@@H](O)[C@H]1O
Briefly: ATPase titration, phosphate release by MESG/PNP (ELIPA kit), Hill fit. The class given is biochemical, Cricetulus griseus. The following applies: Hill coefficient 0.58 ± 0.09, 5 mM MgCl2, 50 mM HEPES pH 7.4, 50 mM NaCl, 37 °C.

B1: N-ethylmaleimide sensitive factor (NSF), wild-type hexamer, P18708 1-744 (enzyme)
chain: MAGRSMQAARCPTDELSLSNCAVVSEKDYQSGQHVIVRTSPNHKYIFTLRTHPSVVPGSVAFSLPQRKWAGLSIGQEIEVALYSFDKAKQCIGTMTIEIDFLQKKNIDSNPYDTDKMAAEFIQQFNNQAFSVGQQLVFSFNDKLFGLLVKDIEAMDPSILKGEPASGKRQKIEVGLVVGNSQVAFEKAENSSLNLIGKAKTKENRQSIINPDWNFEKMGIGGLDKEFSDIFRRAFASRVFPPEIVEQMGCKHVKGILLYGPPGCGKTLLARQIGKMLNAREPKVVNGPEILNKYVGESEANIRKLFADAEEEQRRLGANSGLHIIIFDEIDAICKQRGSMAGSTGVHDTVVNQLLSKIDGVEQLNNILVIGMTNRPDLIDEALLRPGRLEVKMEIGLPDEKGRLQILHIHTARMRGHQLLSADVDIKELAVETKNFSGAELEGLVRAAQSTAMNRHIKASTKVEVDMEKAESLQVTRGDFLASLENDIKPAFGTNQEDYASYIMNGIIKWGDPVTRVLDDGELLVQQTKNSDRTPLVSVLLEGPPHSGKTALAAKIAEESNFPFIKICSPDKMIGFSETAKCQAMKKIFDDAYKSQLSCVVVDDIERLLDYVPIGPRFSNLVLQALLVLLKKAPPQGRKLLIIGTTSRKDVLQEMEMLNAFSTTIHVPNIATGEQLLEALELLGNFKDKERTTIAQQVKGKKVWIGIKKLLMLIEMSLQMDPEYRVRKFLALLREEGASPLDFD
For the molecule B1, the rate of ATP hydrolysis of WT NSF hexamers with soluble SNARE complex (300 nM) and αSNAP (1 μM) against free NSF in data set [1] was 24 fold.

B2: free NSF (NSF hexamer) (Cricetulus griseus) (protein)
chain: MAGRSMQAARCPTDELSLSNCAVVSEKDYQSGQHVIVRTSPNHKYIFTLRTHPSVVPGSVAFSLPQRKWAGLSIGQEIEVALYSFDKAKQCIGTMTIEIDFLQKKNIDSNPYDTDKMAAEFIQQFNNQAFSVGQQLVFSFNDKLFGLLVKDIEAMDPSILKGEPASGKRQKIEVGLVVGNSQVAFEKAENSSLNLIGKAKTKENRQSIINPDWNFEKMGIGGLDKEFSDIFRRAFASRVFPPEIVEQMGCKHVKGILLYGPPGCGKTLLARQIGKMLNAREPKVVNGPEILNKYVGESEANIRKLFADAEEEQRRLGANSGLHIIIFDEIDAICKQRGSMAGSTGVHDTVVNQLLSKIDGVEQLNNILVIGMTNRPDLIDEALLRPGRLEVKMEIGLPDEKGRLQILHIHTARMRGHQLLSADVDIKELAVETKNFSGAELEGLVRAAQSTAMNRHIKASTKVEVDMEKAESLQVTRGDFLASLENDIKPAFGTNQEDYASYIMNGIIKWGDPVTRVLDDGELLVQQTKNSDRTPLVSVLLEGPPHSGKTALAAKIAEESNFPFIKICSPDKMIGFSETAKCQAMKKIFDDAYKSQLSCVVVDDIERLLDYVPIGPRFSNLVLQALLVLLKKAPPQGRKLLIIGTTSRKDVLQEMEMLNAFSTTIHVPNIATGEQLLEALELLGNFKDKERTTIAQQVKGKKVWIGIKKLLMLIEMSLQMDPEYRVRKFLALLREEGASPLDFD
notes: N-terminal His-tag cut by thrombin, pET28a
For B2, the K0.5 in data set [2] turned out to be 9 ± 2 µM.

The values above are taken from publication PMC8163800, “Extreme parsimony in ATP consumption by 20S complexes in the global disassembly of single SNARE complexes” (Nature Communications, 2021).
